In patent US20240352438A1, “MEANS AND METHODS FOR DETOXIFYING OCHRATOXIN A” (DSM Austria GmbH, priority 2021, published 2024):

How the values were obtained:
[1] = OTA detoxification activity assay (specific activity, fluorescence reduction ex/em 390/450 nm); type: biochemical; conditions: SEQ ID NO: 1 = 100%
Outline: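 Recombinant enzyme preparation with 200 ng/mL OTA in 100 mM sodium phosphate, at pH 6.0 and pH 7.5, 37° C. Degradation followed as the fall in fluorescence at ex/em 390/450 nm. Specific activity taken from the initial linear slope; one unit degrades 1 μmol OTA per min at a starting OTA of […].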

[2] = Enzymatic activity comparison: activity remaining after 65° C. for 10 min at pH 6.0, relative to SEQ ID NO: 1; type: physicochemical
Method: To compare the temperature behavior and thermostability of selected enzymes to one another, enzyme was incubated at 65° C. for 10 min at pH 6.0. The enzymatic activity remaining after incubation was compared to the remaining activity of the enzyme of SEQ ID NO: 1 after incubation, the latter being set to 100%, see Table 16.

Molecule | Specific OTA detoxification activities in % compared to the enzyme of SEQ ID NO: 1, pH 6.0 [1] | Specific OTA detoxification activities in % compared to the enzyme of SEQ ID NO: 1, pH 7.5 [1] | Enzymatic activity remaining after incubation, compared to SEQ ID NO: 1 (set to 100%) [2]
316 (protein, exemplary polypeptide) MTTRTRILTAFLSLLAANACAADAAPAAPETVVLRCARMFDGASGKLVDNPQLTIVGNKIVRIAQGDKAEVPAGAEVVDLGDATCLPGFIDAHVHLVVQDSDQYRPRAYKDWQRFPAEHALRGAYWARIELEAGFTSVRDVAERDWVALGLRNAIDAGKVPGPRMLVSNFPVGSTSGHCDMDSVPPNRLPLVGPLQGTCNGPEECRAAVRYQIKYGANVIKFCPSSGAITFSNPADAPQLSPDEMNAVIGESEAWGRYVAAHAQGDKAAKMAVAAGVRSIEHGTFIQDDTLRAMKAKNVCLVPTISGVCEAEAQIGCYPPVMAEKGRAGMASMRQTFREAVQIGVPIALGTDSALPANGSQAREFRYMVENGLTPAQALLAGTANAARCLGTFDRVGTLEAGKLADVVAVPGNPIADITVTERPLFVMKDGVVVRRDAVR | 62% | 61% | 25%
83 (protein, exemplary polypeptide) MTTRTRILTAFLSLLAANACAADAAPAAPHTVVLRAARMFDGASGKLVDHPQLTIVGNKIVRIAQGDKAEVPAGAEVVDLGDATLLPGFIDAHVHLSGQSSDNWYGDFFDNMMRFPAEQALYGAYYARITLEAGFTSVRDVGSTDWVALGLRNAIDAGKVPGPRMLVSNYAVGSTGGHADQDPIPPHKLPLAGPLQGVCNGPEECRAAVRYQIKYGANVIKFMPSGGVISLSDPVDAPELSQDEMNAVIGESHAWGRKVAAHAHGDKAAKMAVAAGVDSIEHGSFIEDDTLRAMKAKNVYLVPTISAIAHVEEKIGTFPPVIAEKGRAAAAHLRQTFRHAVQIGVPIALGTDAGVGAHGSNAREFRYMVENGLTPAQALLAGTANAARLLGTFDRVGTLEAGKLADVVAVPGNPIADITVTERPLFVMKDGVVVRRDAVR | 63% | 90% | 19%
87 (protein, exemplary polypeptide) MTTRTRILTAFLSLLAANACAADAAPAAPHTVVLRAARMFDGASGKLVDHPQLTIVGNKIVRIAQGDKAEVPAGAEVVDLGDATLLPGFIDAHVHLSGQSSDNWYGDFFDNMMRFPAEQALYGAYYARITLEAGFTSVRDVGSTDWVALGLRNAIDAGKVPGPRMLVSNYAVGSTGGHADQDPIPPHKLPLAGPLQGVCNGPEECRAAVRYQIKYGANVIKFMPSGGVLSLSDPVDAPELSQDEMNAVIGESHAWGRKVAAHAHGDKAAKMAVAAGVDSIEHGSFIEDDTLRAMKAKNVYLVPTISAAAHVEEKIGTFPPVIAEKGRAAAAHLRQTFRHAVQIGVPIALGTDAGVGAHGSNAREFRYMVENGLTPAQALLAGTANAARLLGTFDRVGTLEAGKLADVVAVPGNPIADITVTERPLFVMKDGVVVRRDAVR | 65% | 166% | 53%
89 (protein, exemplary polypeptide) MTTRTRILTAFLSLLAANACAADAAPAAPHTVVLRAARMFDGASGKLVDHPQLTIVGNKIVRIAQGDKAEVPAGAEVVDLGDATLLPGFIDAHVHLSGQSSDNWYGDFFDNMMRFPAEQALYGAYYARITLEAGFTSVRDVGSTDWVALGLRNAIDAGKVPGPRMLVSNYAVGSTGGHADQDPIPPHKLPLAGPLQGVCNGPEECRAAVRYQIKYGANVIKFMPSGGVLSLSDPVDAPELSQDEMNAVIGESHAWGRKVAAHAHGDKAAKMAVAAGVDSIEHGSFIEDDTLRAMKAKNVYLVPTISAIAHIEEKIGTFPPVIAEKGRAAAAHLRQTFRHAVQIGVPIALGTDAGVGAHGSNAREFRYMVENGLTPAQALLAGTANAARLLGTFDRVGTLEAGKLADVVAVPGNPIADITVTERPLFVMKDGVVVRRDAVR | 43% | 107% | 71%
84 (protein, exemplary polypeptide) MTTRTRILTAFLSLLAANACAADAAPAAPHTVVLRAARMFDGASGKLVDHPQLTIVGNKIVRIAQGDKAEVPAGAEVVDLGDATLLPGFIDAHVHLSGQSSDNWYGDFFDNMMRFPAEQALYGAYYARITLEAGFTSVRDVGSTDWVALGLRNAIDAGKVPGPRMLVSNYAVGSTGGHADQDPIPPHKLPLAGPLQGVCNGPEECRAAVRYQIKYGANVIKFMPSGGVLSLSDPVDAPELSQDEMNAVIGESHAWGRKVAAHANGDKAAKMAVAAGVDSIEHGSFIEDDTLRAMKAKNVYLVPTISAIAHVEEKIGTFPPVIAEKGRAAAAHLRQTFRHAVQIGVPIALGTDAGVGAHGSNAREFRYMVENGLTPAQALLAGTANAARLLGTFDRVGTLEAGKLADVVAVPGNPIADITVTERPLFVMKDGVVVRRDAVR | 3% | 5% | 58%
88 (protein, exemplary polypeptide) MTTRTRILTAFLSLLAANACAADAAPAAPHTVVLRAARMFDGASGKLVDHPQLTIVGNKIVRIAQGDKAEVPAGAEVVDLGDATLLPGFIDAHVHLSGQSSDNWYGDFFDNMMRFPAEQALYGAYYARITLEAGFTSVRDVGSTDWVALGLRNAIDAGKVPGPRMLVSNYAVGSTGGHADQDPIPPHKLPLAGPLQGVCNGPEECRAAVRYQIKYGANVIKFMPSGGVLSLSDPVDAPELSQDEMNAVIGESHAWGRKVAAHAHGDKAAKMAVAAGVDSIEHGSFIEDDTLRAMKAKNVYLVPTISAIAHLEEKIGTFPPVIAEKGRAAAAHLRQTFRHAVQIGVPIALGTDAGVGAHGSNAREFRYMVENGLTPAQALLAGTANAARLLGTFDRVGTLEAGKLADVVAVPGNPIADITVTERPLFVMKDGVVVRRDAVR | 66% | 91% | 33%
85 (protein, exemplary polypeptide) MTTRTRILTAFLSLLAANACAADAAPAAPHTVVLRAARMFDGASGKLVDHPQLTIVGNKIVRIAQGDKAEVPAGAEVVDLGDATLLPGFIDAHVHLSGQSSDNWYGDFFDNMMRFPAEQALYGAYYARITLEAGFTSVRDVGSTDWVALGLRNAIDAGKVPGPRMLVSNYAVGSTGGHADQDPIPPHKLPLAGPLQGVCNGPEECRAAVRYQIKYGANVIKFMPSGGVLSLSDPVDAPELSQDEMNAVIGESHAWGRKVAAHALGDKAAKMAVAAGVDSIEHGSFIEDDTLRAMKAKNVYLVPTISAIAHVEEKIGTFPPVIAEKGRAAAAHLRQTFRHAVQIGVPIALGTDAGVGAHGSNAREFRYMVENGLTPAQALLAGTANAARLLGTFDRVGTLEAGKLADVVAVPGNPIADITVTERPLFVMKDGVVVRRDAVR | 5% | 3% | 95%
